We go through two substances from patent publication US20250346685A1.

The target of one assay is FcgRI (UniProt P12314). Nature of the assay: SPR.
Assay [1] has as its target human CD3 on T cells (Jurkat cells; human peripheral blood CD4+ and CD8+ T-cells) (human) (UniProt P07766). Nature of the assay: flow cytometry on Jurkat cells.

Sequence of FcgRI (P12314 16-288): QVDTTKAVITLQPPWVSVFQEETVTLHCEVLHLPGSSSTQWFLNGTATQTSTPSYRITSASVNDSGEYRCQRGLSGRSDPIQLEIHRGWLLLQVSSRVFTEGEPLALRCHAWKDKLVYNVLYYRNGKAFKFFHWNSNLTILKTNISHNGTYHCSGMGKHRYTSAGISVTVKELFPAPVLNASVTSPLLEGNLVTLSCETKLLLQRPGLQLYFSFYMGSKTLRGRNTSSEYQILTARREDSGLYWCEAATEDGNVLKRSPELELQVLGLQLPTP

Take KLH-hIgG4: the Kd with FcgRI turned out to be 8.78 nM.

Consider OKT3-hIgG1 (antibody), for which, in assay [1], the affinity (FACS) amounted to 0.27 nM.
